Source: patent publication US20130184211A1 (NEW YORK UNIVERSITY, published 2013)

Columns and labels:
[1] = biological target: T1, 1:1 binary complex of the ectodomains of FGFR1c and Klotho (human; murine, UniProt O35082 35-982); assay: SPR competition dose-response: FGF23^180-251 mixed with a fixed concentration of FGFR1c-Klotho, immobilized FGF23^28-251 as competitor; averaged data of two to three experiments
T1 construct: range 35-982; also called FGFR1c-Klotho complex; binary FGFR1c-Klotho complex; not shown: C-terminal FLAG tag
T1 sequence 1: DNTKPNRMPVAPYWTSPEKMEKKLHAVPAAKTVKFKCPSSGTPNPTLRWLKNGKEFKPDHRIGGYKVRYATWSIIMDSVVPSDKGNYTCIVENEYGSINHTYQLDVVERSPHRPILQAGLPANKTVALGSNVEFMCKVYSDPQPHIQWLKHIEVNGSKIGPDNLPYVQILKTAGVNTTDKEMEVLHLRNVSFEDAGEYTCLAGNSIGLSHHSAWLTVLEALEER
T1 sequence 2: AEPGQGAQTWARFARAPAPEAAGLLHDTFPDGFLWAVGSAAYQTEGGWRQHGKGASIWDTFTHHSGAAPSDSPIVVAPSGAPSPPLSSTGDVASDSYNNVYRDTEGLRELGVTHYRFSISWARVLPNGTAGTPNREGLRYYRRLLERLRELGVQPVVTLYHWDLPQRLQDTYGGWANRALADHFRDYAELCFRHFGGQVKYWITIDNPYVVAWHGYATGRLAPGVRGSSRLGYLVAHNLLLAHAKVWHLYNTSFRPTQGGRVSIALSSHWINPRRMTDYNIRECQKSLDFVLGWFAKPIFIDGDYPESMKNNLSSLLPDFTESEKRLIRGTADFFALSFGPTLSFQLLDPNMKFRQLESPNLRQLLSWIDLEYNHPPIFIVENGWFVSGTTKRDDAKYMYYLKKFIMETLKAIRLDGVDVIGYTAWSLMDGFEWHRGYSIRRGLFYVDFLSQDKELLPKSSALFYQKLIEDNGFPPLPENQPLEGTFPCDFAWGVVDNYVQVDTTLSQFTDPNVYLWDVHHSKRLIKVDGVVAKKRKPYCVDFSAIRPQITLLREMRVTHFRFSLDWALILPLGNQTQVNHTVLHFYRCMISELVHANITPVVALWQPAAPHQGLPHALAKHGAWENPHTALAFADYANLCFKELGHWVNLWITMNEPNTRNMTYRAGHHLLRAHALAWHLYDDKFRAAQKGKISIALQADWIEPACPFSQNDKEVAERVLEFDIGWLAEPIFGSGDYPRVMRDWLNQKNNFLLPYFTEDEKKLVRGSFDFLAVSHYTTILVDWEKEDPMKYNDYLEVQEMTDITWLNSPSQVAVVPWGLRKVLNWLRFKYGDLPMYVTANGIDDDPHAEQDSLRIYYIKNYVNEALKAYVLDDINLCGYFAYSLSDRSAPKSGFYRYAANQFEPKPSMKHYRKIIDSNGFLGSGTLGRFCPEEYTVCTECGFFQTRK
Experimental: Increasing concentrations of FGF23²⁸⁻²⁵¹ (0-50 nM) were mixed with a fixed concentration of 1:1 complex of the ectodomains of FGFR1c and Klotho (15 nM and 20 nM, respectively) in HBS-EP buffer, and the mixtures were passed over the FGF23 chip. In the other—reverse—assay, FGF23¹⁸⁰⁻²⁵¹ was immobilized on a chip (˜48.4 fmole/mm² of flow channel). Increasing concentrations of FGF23²⁸⁻²⁵¹ (0-50 nM) were mixed with a fixed concentration of 1:1 complex of the ectodomains of FGFR1c and Klotho (20 nM) in HBS-EP buffer, and the mixtures were passed over the chip. As a control, competition of FGF23 C-terminal tail peptide in solution with immobilized FGF23 C-terminal tail peptide for binding to the binary FGFR1c-Klotho complex was studied. Increasing concentrations of FGF23¹⁸⁰⁻²⁵¹ (0-400 nM) were mixed with a fixed concentration of 1:1 complex of the ectodomains of FGFR1c and Klotho (20 nM) in HBS-EP buffer, and the mixtures were passed over the FGF23¹⁸⁰⁻²⁵¹ chip.
To fully nail down that the C-terminal tail of FGF23 mediates FGF23 binding to the binary FGFR1c-Klotho complex, a fixed concentration of FGFR1c-Klotho was mixed with increasing concentrations of FGF23¹⁸⁰⁻²⁵¹, and the mixtures were passed over the FGF23 chip. Mixtures of FGF23²⁸⁻²⁵¹ with FGFR1c-Klotho were used as a control. […]

[2] = biological target: T2, complex of V5-tagged FGFR4 and FLAG-tagged membrane-spanning murine Klotho isolated from transfected … (murine, UniProt O35082 35-1014); assay: co-immunoprecipitation competition; competitor FGF23^28-251 (1 nM)
T2 construct: Isolated from cell lysate on anti-V5 agarose beads; also called FGFR4-Klotho complex; binary FGFR-Klotho complex; not shown: FGFR4, V5-tagged, expressed from a vector in HEK293-Klotho cells
From the text: (§1) Co-immunoprecipitation may also be used to determine that an agent specifically binds the binary FGFR-Klotho complex. One aspect of the present invention utilizes co-immunoprecipitation studies. Subconfluent cultures of a HEK293 cell line ectopically expressing the FLAG-tagged membrane-spanning form of murine Klotho were transfected with expression vectors for V5-tagged FGFR1c, FGFR3c, or FGFR4. Two days later, the cells were lysed, and FGFR-Klotho complexes were isolated from cell lysate using anti-V5 agarose beads. The beads were then incubated with either FGF23¹⁸⁰⁻²⁵¹ or FGF23²⁸⁻²⁵¹ alone, or with mixtures of FGF23²⁸⁻²⁵¹ with either increasing FGF23¹⁸⁰⁻²⁵¹ or increasing FGF23¹⁸⁰⁻²⁰⁵. Bead-bound proteins were resolved on SDS-polyacrylamide gels, transferred to nitrocellulose membranes, and labeled using antibodies to Klotho, FGF23, and V5 epitope tag.

[3] = biological target: T3, complex of V5-tagged FGFR3c and FLAG-tagged membrane-spanning murine Klotho isolated from transfected … (murine, UniProt O35082 35-1014); assay: as above
T3 construct: Isolated from cell lysate on anti-V5 agarose beads; also called FGFR3c-Klotho complex; binary FGFR-Klotho complex; not shown: FGFR3c, V5-tagged, expressed from a vector in HEK293-Klotho cells
From the text: as §1

T3 sequence (O35082 35-1014, one chain of several): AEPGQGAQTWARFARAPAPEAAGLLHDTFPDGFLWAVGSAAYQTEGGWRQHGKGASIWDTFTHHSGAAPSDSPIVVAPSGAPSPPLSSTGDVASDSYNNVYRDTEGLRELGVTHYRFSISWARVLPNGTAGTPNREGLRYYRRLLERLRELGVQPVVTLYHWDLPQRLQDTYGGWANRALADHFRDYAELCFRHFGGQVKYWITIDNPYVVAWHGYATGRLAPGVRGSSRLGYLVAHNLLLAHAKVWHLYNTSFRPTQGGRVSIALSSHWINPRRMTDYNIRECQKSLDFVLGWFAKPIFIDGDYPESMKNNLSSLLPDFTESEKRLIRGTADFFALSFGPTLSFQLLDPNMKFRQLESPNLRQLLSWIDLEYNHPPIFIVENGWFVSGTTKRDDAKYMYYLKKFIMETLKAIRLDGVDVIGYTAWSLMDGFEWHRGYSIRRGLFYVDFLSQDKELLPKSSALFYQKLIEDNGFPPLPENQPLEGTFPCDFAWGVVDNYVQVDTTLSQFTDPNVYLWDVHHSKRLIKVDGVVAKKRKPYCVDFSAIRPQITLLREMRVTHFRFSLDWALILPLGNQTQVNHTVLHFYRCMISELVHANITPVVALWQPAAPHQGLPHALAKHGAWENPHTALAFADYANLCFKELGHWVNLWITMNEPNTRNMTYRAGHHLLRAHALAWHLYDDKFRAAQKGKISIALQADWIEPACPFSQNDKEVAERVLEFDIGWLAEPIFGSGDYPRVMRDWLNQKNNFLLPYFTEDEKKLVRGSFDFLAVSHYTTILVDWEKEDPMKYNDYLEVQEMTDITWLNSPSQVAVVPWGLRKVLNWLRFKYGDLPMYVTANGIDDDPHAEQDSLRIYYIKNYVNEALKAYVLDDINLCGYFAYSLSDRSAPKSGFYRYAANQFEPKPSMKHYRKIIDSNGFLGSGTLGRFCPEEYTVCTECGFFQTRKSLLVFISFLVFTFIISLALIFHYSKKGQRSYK

IC50 (read off the curve) [1]: ~50 nM
molar excess over FGF23^28-251 that completely blocked its binding [2]: 76 fold molar excess
molar excess over FGF23^28-251 that completely blocked its binding [3]: 76 fold molar excess
B1: N-terminally hexahistidine-tagged 72-amino acid C-terminal tail of human FGF23 (S180 to I251), FGF23^180-251 (peptide)
peptide: SAEDDSERDPLNVLKPRARMTPAPASCSQELPSAEDNSPMASDPLGVVRGGRVNTHAGGTGPEGCRPFAKFI
notes: Expressed in E. coli; also called FGF23 C-terminal tail peptide; C-terminal tail of FGF23; not shown: N-terminal hexahistidine tag (six His)
